Measured values from patent US7012133 (CHILDREN S MEDICAL CENTER, dated 2006).

B2: human eotaxin (ligand)
chain: not shown
modifications: 125I label (Bolton Hunter reagent) where used as radioligand

What was measured:
[1] = target: T1, C-C chemokine receptor 3 (CCR3, CKR-3) of human origin, native, on blood eosinophils and basophils (human, UniProt P51677 1-355); assay: heterologous competition of radiolabeled RANTES binding on eosinophils
T1 construct: whole, on cells; also called Eos L2 receptor; eosinophilic chemokine receptor
T1 sequence (looked up): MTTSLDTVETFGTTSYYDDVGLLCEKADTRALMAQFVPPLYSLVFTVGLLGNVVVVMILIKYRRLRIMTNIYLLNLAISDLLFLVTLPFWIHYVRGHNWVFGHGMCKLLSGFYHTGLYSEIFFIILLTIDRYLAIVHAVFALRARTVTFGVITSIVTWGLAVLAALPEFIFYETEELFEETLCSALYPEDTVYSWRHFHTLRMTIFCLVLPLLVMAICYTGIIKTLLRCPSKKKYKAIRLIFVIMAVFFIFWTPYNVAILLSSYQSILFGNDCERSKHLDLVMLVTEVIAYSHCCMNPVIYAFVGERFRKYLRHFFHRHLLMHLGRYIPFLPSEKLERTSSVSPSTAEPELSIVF
Experimental: (§1) Cells transfected with Eos L2 receptors or normal human eosinophils purified (see above) were washed in Hanks Balanced Saline Solution (HBSS), then resuspended in binding buffer: 50 mM HEPES, 1 mM CaCl_2, 5 mM MgCl_2, 0.5% Bovine Serum Albumin (BSA), pH 7.3. In microfuge tubes, 5 ×10^5 cells were incubated with 0.1 nM radiolabeled chemokine (purchased from New England Nuclear, Massachusetts) in 200 µl aliquots at room temperature for 60 minutes. The cells were either incubated with radiolabeled chemokine alone, or together with unlabeled chemokines (from PeproTech) as competitors, which were used at the indicated concentrations. At the end of incubation, cells were washed 3 times in the binding buffer, each wash consisting of centrifugation in a microfuge at 7,000×g for 2 minutes. After the wash, the pellets were transferred into LP3 tubes and the radioactivity of the cells, which represented the amount of binding was measured in a gamma counter. All samples were in duplicates and all the experiments were repeated at least 3 times. Scatchard Plot was calculated from the binding data by MicroSoft Excell and CricketGraph on a Macintosh computer.
Figure 6: FIG. 6 is a histogram illustrating the binding of RANTES and MIP-1α to human eosinophils. […] Human eosinophils were incubated with 0.1 nM radiolabeled RANTES and the indicated concentrations of cold chemokines. […]

[2] = target: T1, C-C chemokine receptor 3 (CCR3, CKR-3) …; assay: Scatchard analysis of unlabeled eotaxin competition on human eosinophils
Experimental: (§2) FIG. 11A) or to human eosinophils (FIG. 11B). […] After 60 minutes at room temperature, cell pellets were washed and counted. Scatchard plots of unlabeled eotaxin competition were calculated from the data (FIG. 11C, E5 cell line; FIG. 11D, eosinophils).
(§3) Competition is presented as the percentage of specific binding as calculated by $100(S-B)/(T-B)$, where S is the radioactivity of the sample, B as background binding and T as total binding without competitors. Background binding was obtained by incubating cells with radiolabeled chemokine and at least 400-fold excess of unlabeled chemokines. […] Duplicates were used throughout the experiments and the standard deviations were always less than 10% of the mean. All experiments were repeated at least three times. Curve fit was calculated by […] software.
(§4) The E5 cell line described in Example 6 was tested for its ability to bind radiolabeled eotaxin. […] In addition, both RANTES and MCP-3 were able to specifically compete for binding. None of the other chemokines tested, including MIP-1α, MIP-1β, or IL-8 were able to specifically compete for radiolabeled ligand (FIG. 12).

[3] = target: T2, receptor encoded by the A31 cDNA clone (human CKR-3 / Eos L2) (human, UniProt P51677 1-355); assay: Scatchard analysis, 125I-RANTES on membranes of A31-293-#20 cells
T2 construct: one RBL transfectant is also mentioned
T2 sequence: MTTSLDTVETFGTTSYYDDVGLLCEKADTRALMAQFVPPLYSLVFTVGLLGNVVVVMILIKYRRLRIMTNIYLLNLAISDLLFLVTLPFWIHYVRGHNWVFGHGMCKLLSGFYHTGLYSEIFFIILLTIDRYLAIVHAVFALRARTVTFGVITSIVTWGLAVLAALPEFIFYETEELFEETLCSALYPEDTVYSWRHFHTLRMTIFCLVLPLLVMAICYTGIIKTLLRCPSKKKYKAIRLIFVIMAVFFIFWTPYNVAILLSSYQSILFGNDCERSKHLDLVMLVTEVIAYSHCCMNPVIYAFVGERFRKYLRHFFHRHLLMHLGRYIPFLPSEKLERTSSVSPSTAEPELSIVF
Experimental: Plates were grown to confluence, and membranes were prepared as follows. Culture medium was removed, and the cells were washed with phosphate buffered saline. Cells were harvested by washing with TEN (40 mM TRIS, pH 7.5, 1 mM EDTA, and 150 mM NaCl). The cells were frozen in liquid nitrogen, thawed at room temperature, and the membrane fraction was collected by centrifugation in a conical tube for 10 minutes at 18,000 rpm. Each binding point was determined using one-half of the membranes harvested from a single 100 mm plate grown to confluence.
Binding assays were performed as described by Van Riper, G. et al., J. Exp. Med., 177: 851 (1993), with the following modifications. […] Binding buffer was 50 mM Hepes, 1 mM CaCl_2, 5 mM MgCl_2, 0.5% BSA, pH 7.2. Radiolabeled and cold ligand were added simultaneously to the membranes (see above), and incubated for 1.5 hours at room temperature. […] Activity retained on filters after washing was determined by scintillation counting. Filters were placed in 5 cc of scintillation fluid and were then counted in a miniaxi-beta liquid scintillation counter (United Technologies, Packard, Downers Grove, Ill.). All points were determined in triplicate, except for the point at 2 nM, which was determined in duplicate. […]

[4] = target: T1, C-C chemokine receptor 3 (CCR3, CKR-3) …; assay: Scatchard analysis, radioligand binding to human eosinophils
Experimental: as §1, with “In” for “Cells transfected with Eos L2 receptors or normal human eosinophils purified (see above) were washed in Hanks Balanced Saline Solution (HBSS), then resuspended in binding buffer: 50 mM HEPES, 1 mM CaCl_2, 5 mM MgCl_2, 0.5% Bovine Serum Albumin (BSA), pH 7.3. In”
(§5) Figure 6: FIG. 6 is a histogram illustrating the binding of RANTES and MIP-1α to human eosinophils. […] Human eosinophils were incubated with 0.1 nM radiolabeled RANTES and the indicated concentrations of cold chemokines. The data plotted are the means and standard deviations of duplicates for each sample.

[5] = target: T3, CCR1 on stable L1.2 transfectants (UniProt P32246 1-355, limits assumed); assay: 125I-RANTES binding to L1.2 CCR1 transfectants
T3 construct: whole, on cells; also called CKR-1; CC CKR1
T3 sequence (looked up): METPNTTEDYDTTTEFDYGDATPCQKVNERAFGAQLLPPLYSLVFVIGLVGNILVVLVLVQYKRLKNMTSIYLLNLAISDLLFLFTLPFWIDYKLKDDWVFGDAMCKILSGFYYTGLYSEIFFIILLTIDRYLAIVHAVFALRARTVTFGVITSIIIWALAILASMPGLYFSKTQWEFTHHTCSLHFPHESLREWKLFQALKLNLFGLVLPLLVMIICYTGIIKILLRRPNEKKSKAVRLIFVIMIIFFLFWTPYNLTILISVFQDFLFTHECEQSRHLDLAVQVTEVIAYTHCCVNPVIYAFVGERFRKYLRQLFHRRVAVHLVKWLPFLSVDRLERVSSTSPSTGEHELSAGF

[6] = target: T1, C-C chemokine receptor 3 (CCR3, CKR-3) …; assay: inhibition of 0.1 nM 125I-eotaxin binding to human eosinophils by varied 7B11
[7] = target: T1, C-C chemokine receptor 3 (CCR3, CKR-3) …; assay: inhibition of 0.1 nM 125I-MCP-3 binding to human eosinophils by varied 7B11
[8] = target: T1, C-C chemokine receptor 3 (CCR3, CKR-3) …; assay: inhibition of 0.1 nM 125I-RANTES binding to human eosinophils by varied 7B11
human eotaxin = target: B2; assay: Scatchard analysis of unlabeled eotaxin competition on E5 cells
Experimental: as §2, §3, §4

[9] = target: T4, MIP-1α binding sites on human eosinophils; assay: Scatchard analysis, radioligand binding to human eosinophils
T4 construct: also called receptor for MIP-1α on eosinophils
Experimental: as §1, with “In” for “Cells transfected with Eos L2 receptors or normal human eosinophils purified (see above) were washed in Hanks Balanced Saline Solution (HBSS), then resuspended in binding buffer: 50 mM HEPES, 1 mM CaCl_2, 5 mM MgCl_2, 0.5% Bovine Serum Albumin (BSA), pH 7.3. In”
as §5

Chain of human eotaxin (P51671 24-97 limits assumed): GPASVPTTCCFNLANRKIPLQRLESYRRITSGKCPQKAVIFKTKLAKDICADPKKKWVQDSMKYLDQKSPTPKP

B1: MCP-3 (ligand)
chain: not shown
modifications: 125I label where used as radioligand
notes: also called human MCP-3
binding result [1]: binds

B2
Kd [2]: 0.5 nM

B3: RANTES (ligand, human, UniProt P13501 24-91, looked up)
chain: SPYSSDTTPCCFAYIARPLPRAHIKEYFYTSGKCSNPAVVFVTRKNRQVCANPEKKWVREYINSLEMS
modifications: also: 125I label where used as radioligand
notes: also called cold RANTES
Kd [3]: ~2.5 nM | Kd [4]: 0.883 nM | binding result [5]: binds

B4: monoclonal antibody 7B11 (ATCC Accession No. HB-12195) (antibody, V domains shown)
VH: MVQLQQSGTVLARPGASVRMSCKTSGYTFTNYRMHWVRQRPGQGLEWIGSIYPGHTETTYNQNFKDKAKLTAVTSATTAYMGLSSLTNEDSAVYYCTRSGGNYWGQGTTVTVSS
VL: DIQMTQSPSSLSASLGERVSLTCRASQDIGSSLNWLQQKPDGTFIRLIYATSSLDSGVPRRFSGSRSGSDYSLTISSLESEDFVDYYCLQYATFPLTFGAGTKLEIK
IC50 [6]: 0.0257 µg/mL | IC50 [7]: 0.0188 µg/mL | IC50 [8]: 0.0137 µg/mL

B5: FLAG-tagged Eos L2 (CKR-3) receptor (receptor)
chain: MDYKDDDDKEFTTSLDTVETFGTTSYYDDVGLLCEKADTRALMAQFVPPLYSLVFTFGLLGNVVVVMILIKYRRLRIMTNIYLLNLAISDLLFLVTLPFWIHYVRGHNWVFGHGMCKLLSGFYHTGLYSEIFFIILLTIDRYLAIVHAVFALRARTVTFGVITSIVTWGLAVLAALPEFIFYETEELFEETLCSALYPEDTVYSWRHFHTLRMTIFCLVLPLLVMAICYTGIIKTLLRCPSKKKYKAIRLIFVIMAVFFIFWTPYNVAILLSSYQSILFGNDCERTKHLDLVMLVTEVIAYSHCCMNPVIYAFVGERFRKYLRHFFHRHLLMHLGRYIPFLPSEKLERTSSVSPSTAEPELSIVF
notes: Receptor from the 1.8 kb genomic HindIII fragment, expressed on L1.2 (L1-2) pre-B cells, 293 cells or baculovirus-infected Sf9 cells; also called Eos L2 receptor fusion protein; CKR-3/pcDNA3 product
Kd (human eotaxin): 1.5 nM

B6: MIP-1α (ligand, human, UniProt P10147 23-92, looked up)
chain: ASLAADTPTACCFSYTSRQIPQNFIADYFETSSQCSKPGVIFLTKRSRQVCADPSEEWVQKYVSDLELSA
modifications: also: 125I label where used as radioligand
notes: also called macrophage inflammatory protein 1α
Kd [9]: 0.091 nM
